Laboratory results: patent US20230220008A1

Target: CD137 on Jurkat reporter cells (Promega) (UniProt Q07011)
Assay: cell-based or functional assay

Chain of CD137 on Jurkat reporter cells (Promega) (Q07011 24-255 limits assumed): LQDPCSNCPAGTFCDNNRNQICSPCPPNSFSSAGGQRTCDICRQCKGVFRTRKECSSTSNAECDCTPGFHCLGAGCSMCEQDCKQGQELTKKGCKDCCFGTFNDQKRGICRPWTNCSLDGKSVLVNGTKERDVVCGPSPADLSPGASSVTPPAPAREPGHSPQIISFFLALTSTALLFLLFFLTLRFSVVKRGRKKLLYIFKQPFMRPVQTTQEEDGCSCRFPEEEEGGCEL

Average EC50: 14.2 nM | Average fold induction: 4 fold
Substance: CD137 ligand (from UniProt P41273 71-254)
